The values below come from patent US20200069775A1, “BRAIN OSTEOCALCIN RECEPTOR AND COGNITIVE DISORDERS” (The Trustees of Columbia University in the City of New York, priority 2017, published 2020).

Data set [1] can be described thus: Ex vivo dual perfusion of the mouse placenta (maternal-fetal transport). Format: in vitro ADME. How it is done:
Maternal-fetal transport of osteocalcin was monitored using ex vivo dual perfusion of the mouse placenta (Goeden & Bonnin, 2013, Nature Protocols 8:66-74). Osteocalcin (300 ng/ml) was injected on the maternal side through the uterine artery in placentas obtained from WT mice at E14.5, E15.5, and E18.5 of pregnancy (n=3 independent perfusions per age). Osteocalcin transport through the placenta was analyzed by measuring the concentration of osteocalcin present in fetal eluates obtained through the umbilical vein, each time point (1-9) corresponding to a 10 minute collection period (at 5 μl/min). Collection time points (from 10 to 30 min of perfusion) were obtained during materal fluid infusion; time points 4-6 (from 30 to 60 min of perfusion) were obtained during osteocalcin infusion into the maternal uterine artery, whereas for time points 7-9 (from 60 to 90 min of perfusion, respectively) the maternal uterine artery was infused with maternal fluid alone.
Any influence of maternal osteocalcin on fetal brain development requires that this hormone cross the placenta. This was investigated through an ex vivo dual perfusion system that monitors the transport of substances across the mouse placenta (Bonnin et al., 2011, Nature 472:347-350; Goeden and Bonnin, […], Nature Protocols 8:66-74).

In the next data set the target is T1, Gpr158 (Mus musculus, UniProt Q8C419).
T1 sequence (Q8C419 25-1200): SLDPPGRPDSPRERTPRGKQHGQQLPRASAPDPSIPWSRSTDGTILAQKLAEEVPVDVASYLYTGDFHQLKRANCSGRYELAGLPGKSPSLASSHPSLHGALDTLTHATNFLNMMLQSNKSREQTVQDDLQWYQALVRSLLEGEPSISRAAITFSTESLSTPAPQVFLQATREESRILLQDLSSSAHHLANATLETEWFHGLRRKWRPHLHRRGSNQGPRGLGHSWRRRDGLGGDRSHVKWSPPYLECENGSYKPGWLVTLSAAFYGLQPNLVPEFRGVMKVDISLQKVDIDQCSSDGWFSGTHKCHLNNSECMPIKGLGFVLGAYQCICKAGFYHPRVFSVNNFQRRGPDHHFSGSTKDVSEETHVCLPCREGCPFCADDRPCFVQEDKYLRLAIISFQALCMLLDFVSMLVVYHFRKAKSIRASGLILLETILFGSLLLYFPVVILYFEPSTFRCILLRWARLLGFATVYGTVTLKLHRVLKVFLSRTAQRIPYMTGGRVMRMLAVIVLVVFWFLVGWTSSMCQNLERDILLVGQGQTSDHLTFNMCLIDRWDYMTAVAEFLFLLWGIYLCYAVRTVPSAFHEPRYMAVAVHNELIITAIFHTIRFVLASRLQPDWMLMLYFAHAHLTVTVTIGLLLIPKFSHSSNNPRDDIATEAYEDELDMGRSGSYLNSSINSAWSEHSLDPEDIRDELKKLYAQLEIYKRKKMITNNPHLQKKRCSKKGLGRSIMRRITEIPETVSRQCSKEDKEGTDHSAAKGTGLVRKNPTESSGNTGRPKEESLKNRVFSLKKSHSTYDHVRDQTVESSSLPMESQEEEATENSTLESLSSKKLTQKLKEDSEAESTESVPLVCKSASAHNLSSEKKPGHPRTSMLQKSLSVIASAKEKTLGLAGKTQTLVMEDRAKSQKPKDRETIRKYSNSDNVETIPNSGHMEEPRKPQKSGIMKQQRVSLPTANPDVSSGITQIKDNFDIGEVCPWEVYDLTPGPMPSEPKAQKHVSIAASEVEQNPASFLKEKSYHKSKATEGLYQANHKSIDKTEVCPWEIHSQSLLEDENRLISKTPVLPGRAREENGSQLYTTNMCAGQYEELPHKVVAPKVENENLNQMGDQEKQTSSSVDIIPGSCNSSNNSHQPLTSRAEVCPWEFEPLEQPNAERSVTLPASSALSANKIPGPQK
Briefly: Whole-cell current clamp in CA3 pyramidal neurons of WT and Gpr158−/− hippocampal slices. Details: visually identified pyramidal neurons in the CA3 area of the hippocampus; from tissue; host or cells: coronal hippocampal slices of 3-4 week old male WT and Gpr158-/- mice. Format: cell-based. As for the experimental part: Coronal brain slices containing the hippocampus were prepared from wild type and KO mice (3-4 weeks old, male) as previously reporte. Briefly, mice were anesthetized with isoflurane and then decapitated to harvest brains, which were rapidly removed and immersed in an oxygenated cutting solution at 4° C. containing (in mM): sucrose 220, KCl 2.5, CaCl2 1, MgCl2 6, NaH2PO4 1.25, NaHCO3 26, and glucose 10, and adjusted to pH 7.3 with NaOH. Coronal slices containing the hioopcampus (300 μm thick) were cut with a vibratome, trimmed to contain just the hippocampus. After preparation, slices were stored in a holding chamber with an oxygenated (with 5% CO2 and 95% O2) artificial cerebrospinal fluid (ACSF) containing (in mM): NaCl 124, KCl3, CaCl2 2, MgCl2 2, NaH2PO4 1.23, NaHCO3 26, glucose 10, pH 7.4 with NaOH. The slices were eventually transferred to a recording chamber constantly perfused with ACSF at 33° C. at a rate of 2 ml/min after at least a 1 hour recovery in the storage chamber. […] After a stable base of APs were recorded for 10 minutes, osteocalcin was applied to the recorded cells through bath application at a concentration of 10 ng/ml for 5-10 minutes and then washed out with ACSF. […] Action potentials were detected and analyzed with AxoGraph X and plotted with Igor Pro software (WaveMetrics, Lake Oswego, Oreg.).

“osteocalcin: Recombinant osteocalcin bacterially produced, cleaved from the GST subunit; completely undercarboxylated at all three sites; full-length mouse osteocalcin (YLGASVPSPDPLEPTREQCELNPACDELSDQYGLKTAYKRIYGITI)”: the “transport across the placenta” value in data set [1] (day 14.5 of gestation, 300 ng/ml through uterine artery) was “begins to cross the placenta”. Further, the “transplacental transfer to the fetal circulation” value in data set [1] (day 15.5 or 18.5 of gestation) is recorded as “larger transplacental transfer”. For the same substance, in the data set with Gpr158 (WT), the “CA3 pyramidal neurons showing the effect on spontaneous AP frequency” value was 4 of 4 cells. For the same substance, the “action potential frequency in pyramidal cells of the CA3 region” value in the data set with Gpr158 (WT hippocampi, 10 ng/ml) is “significantly enhanced the action potential frequency”.
